Assays:
[1] = target: AP-7-168-stabilized β2AR dimer (construct PN1) (UniProt P07550); test: BLI
[2] = target: β2-adrenergic receptor (β2AR), construct PN1, monomeric (UniProt P07550); test: BLI

Kd [1]: 3110 nM
Kd [2]: 1710 nM
Substance: heterotrimeric Gs (Gαsβ1γ2) (from UniProt P63092;P62873;P59768) (complex)

— publication PMC13645619
